T1: human catalase (Homo sapiens, UniProt P04040)
T1 sequence (P04040 2-527 limits assumed): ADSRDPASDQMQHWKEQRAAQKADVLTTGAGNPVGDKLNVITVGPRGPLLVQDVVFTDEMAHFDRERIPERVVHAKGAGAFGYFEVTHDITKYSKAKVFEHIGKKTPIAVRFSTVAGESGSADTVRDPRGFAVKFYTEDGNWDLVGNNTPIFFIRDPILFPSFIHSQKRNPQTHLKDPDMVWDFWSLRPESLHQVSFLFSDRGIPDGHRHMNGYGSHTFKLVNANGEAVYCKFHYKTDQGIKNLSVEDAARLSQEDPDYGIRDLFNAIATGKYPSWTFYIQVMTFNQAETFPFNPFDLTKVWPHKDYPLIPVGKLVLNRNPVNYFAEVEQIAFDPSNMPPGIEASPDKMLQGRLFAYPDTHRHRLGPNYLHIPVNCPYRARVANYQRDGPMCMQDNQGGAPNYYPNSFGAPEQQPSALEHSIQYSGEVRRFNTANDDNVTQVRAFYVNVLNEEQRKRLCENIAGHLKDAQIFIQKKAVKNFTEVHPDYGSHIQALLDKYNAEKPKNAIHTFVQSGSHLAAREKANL

B1: aCATcb0972: single domain VHH fragment that binds to and neutralizes human catalase; SEQ ID NO: 10 (protein)
VHH: MAQVQLVESGGGLVQAGGSLRLSCAASERTFNTYGMGWFRQAPGKEREFVATISWSGDSTYYADSVKGRFTISRDNAKNTMYLQMNSLKPEDTAVYYCNANSEYGDSYWGQGTQVTVSSKKKHHHHHH
modifications: catalase binding
B2: aSODcb0987: single domain VHH fragment binding to human SOD1, but not neutralizing; SEQ ID NO: 14 (protein)
VHH: MAQVQLVESGGGIVQPGGSLRLSCVASESISEIDAMYWHRQAPGKERELVAGITNDGTRYYADSVKGRFTISRDNAKSTLYLQMNSLKFEDTAMYYCAALPNPPPGYWGQGTQVTVSSKKKHHHHHH
modifications: SOD binding

How the values were obtained:
human catalase [1] = target: T1, human catalase; assay: ELISA selection of clones binding to human catalase
Text: […] […] In a second run, by employing the cell culture system described by Heinzelmann and Bauer (Heinzelmann S. and Bauer G. Multiple protective functions of catalase against intercellular apoptosis-inducing ROS signaling of human tumor cells, Biol. Chem. 391, 675-693, 2010) it was checked which one of the single domain VHH fragments binding to catalase actually results in an inhibition of the catalase, what is expressed as ROS-dependent apoptosis induction in the cells. […] The clones underlying the single domain VHH fragments were sequenced by standard methods and the amino acid sequence was determined therefrom.

human catalase [2] = target: T1, human catalase; assay: Check for inhibition (neutralization) of catalase, expressed as ROS-dependent apoptosis induction in cell culture system; assay type: cell-based; design: catalase-neutralizing single domain VHH fragments only neutralize the membranous catalase of tumor cells; endogenous in cells; host or cells: MKN-45 human gastric carcinoma cells
Text: For the determination of the neutralizing effect of single domain VHH or Fab fragments directed against catalase a test system is suitable that is based on the apoptosis-inducing effect of H2O2 and the degradation of H2O2 by catalase. Here, as the cellular test system both non-malignant and malignant cells can be employed. It is only required that apoptosis induction is quantitatively determinable in the selected cell system. As the H2O2 source, H2O2-generating glucose oxidase (GOX) is preferred over the direct addition of H2O2, because the continuous production of H2O2 by GOX (by using glucose from the culture medium of the cells) allows a very precise adjustment of the H2O2 flux. The test system is based on the inhibition of the apoptosis induction by GOX mediated by catalase and the restoration of the apoptosis induction by catalase-neutralizing single domain VHH or Fab fragments. […] For that, in general depending on the cell system, GOX concentrations between 0.1 and 40 mU/ml are required. In a second step, the concentration of human catalase is determined that is just sufficient to abolish the effect achieved by GOX. […] After successful determination of the suitable concentrations of GOX and catalase then the actual experiment for the determination of the catalase-neutralizing effect of single domain VHH or Fab fragments can be performed. For that, the selected catalase concentration is pre-incubated for 20 minutes with selected concentrations of the single domain VHH or Fab fragments to be tested. Subsequently, said mixture together with the concentration of GOX determined to be suitable is added to the cells and apoptosis induction is measured. A reliable neutralizing effect of the single domain VHH or Fab fragments is obtained if the inhibiting effect of the catalase on the GOX-mediated apoptosis induction was abolished by at least 90%, i.e. if 90% of the apoptosis induction value is achieved that is shown in control preparations without addition of catalase. If there is achieved an abolition of the inhibiting effect of catalase of at least 50% there may be assumed a significant inhibiting effect of the tested single domain VHH or Fab fragment. […]
[…] In a second run, by employing the cell culture system described by Heinzelmann and Bauer (Heinzelmann S. and Bauer G. Multiple protective functions of catalase against intercellular apoptosis-inducing ROS signaling of human tumor cells, Biol. Chem. 391, 675-693, 2010) it was checked which one of the single domain VHH fragments binding to catalase actually results in an inhibition of the catalase, what is expressed as ROS-dependent apoptosis induction in the cells. […] The clones underlying the single domain VHH fragments were sequenced by standard methods and the amino acid sequence was determined therefrom.

[3] = system: MKN-45 gastric carcinoma cells; assay: Standard preparation for autocrine ROS-controlled apoptosis induction in tumor cells (percentage of apoptotic cells); assay type: cell-based, human
Method: The experiments shown in FIG. 13-24 were carried out with a standard preparation for the apoptosis induction that is based on the method performed in Heinzelmann and Bauer 2010. The tumor cells used were taken from an optimally growing semi-sealed culture, centrifuged and placed in fresh medium. The test was performed in 96-well cell culture plates with 12 500 MKN-45 cells/100 μl medium or 10 000 SHEP cells/100 μl medium. MKN-45 cells grow in suspension, SHEP cells are adherent. The tests with SHEP cells were started as soon as the cells had grown on. By adding increasing concentrations of single domain VHH fragments that either inhibit catalase or SOD the protection of the tumor cells from their own ROS signaling was annulled so that based on the cell-owned extracellular superoxide anion production the NO/peroxynitrite signal path and the HOCl path (with MKN-45 cells) or in case of the SHEP cells only the NO/peroxynitrite path could start when the cells were incubated at 37° C. The analysis of the signal paths was carried out by the application of inhibitors of the NADPH oxidase (AEBSF), the HOCl scavenger taurine, the peroxynitrite scavenger FeTPPS and the singlet oxygen scavenger histidine. In some experiments for comparison instead of the single domain VHH fragments either recombinant Fab fragments or monoclonal antibodies were applied. This is indicated in the respective illustrations.
Double preparations were examined at the times shown in the text by means of phase contrast reverse microscopy for the percentage of apoptotic cells. Here, the classical apoptosis criteria described and documented in Heinzelmann and Bauer 2010 such as condensation of the nucleus, fragmentation of the nucleus, and membrane blebbing were used. Per single preparation at least 250 randomly selected cells were examined for the presence of apoptosis features. […]

human SOD1 [4] = target: T2, human SOD1 (Homo sapiens, UniProt P00441); assay: Check for inhibition (neutralization) of SOD, ROS-dependent apoptosis induction and HOCl control trial; assay type: cell-based; design: endogenous in cells; host or cells: MKN-45 human gastric carcinoma cells
T2 sequence (P00441 2-154 limits assumed): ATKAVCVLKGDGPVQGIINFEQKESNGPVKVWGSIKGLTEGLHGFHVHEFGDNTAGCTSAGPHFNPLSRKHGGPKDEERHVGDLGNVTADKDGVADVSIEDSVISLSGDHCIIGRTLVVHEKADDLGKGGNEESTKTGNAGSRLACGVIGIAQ
Text: Thus, the inhibition of the SOD mediated by single domain VHH or Fab fragments (comparison) can be determined by the fact that the apoptosis induction of tumor cells by exogenously added HOCl is employed as the test system. HOCl in a concentration depending manner induces apoptosis that is based on the interaction between HOCl and superoxide anions that results in the formation of aggressive hydroxyl radicals (Bauer G. HOCl-dependent singlet oxygen and hydroxyl radical generation modulate and induce apoptosis of malignant cells. Anticancer Res 33: 3589-3602, 2013). […] That is, the neutralizing effect of single domain VHH or Fab fragments can be determined by checking whether the inhibition of the apoptosis is abolished again by the single domain VHH or Fab fragments to be tested. The quantitative employment of said test system requires linking several simple steps the skilled person is familiar with. In the first step the concentration of commercially available HOCl (or sodium hypochlorite that sufficiently forms HOCl in medium) is determined that generates a significant quantifiable apoptosis signal within a reasonable trial time (1-2 hours). […] As soon as the first two steps have been satisfactorily performed there can take place the actual test of the inhibiting effect of the single domain VHH or Fab fragments. For that, selected concentrations of the fragments to be tested are pre-incubated for 20 minutes with the optimal concentration of SOD determined in advance in step #2. Subsequently, said mixture is added to the test cells. Thereafter, HOCl is added and the apoptosis induction is determined. […]
The preparation was by immunizing alpacas with human SOD1 (SOD1=Cu/ZnSOD [EC 1.15.1.1] purified from human erythrocytes, obtained from Sigma (Schnelldorf), catalogue number S 9636) under supervision of a veterinary, obtaining RNA from the B cells of the animals, reverse transcription, cloning in E. coli and isolation via the phage display technology. […] In the following, this is expressed as ROS-dependent apoptosis induction. […]

human SOD1 [5] = target: T2, human SOD1; assay: ELISA selection of clones binding to human SOD1
Text: The preparation was by immunizing alpacas with human SOD1 (SOD1=Cu/ZnSOD [EC 1.15.1.1] purified from human erythrocytes, obtained from Sigma (Schnelldorf), catalogue number S 9636) under supervision of a veterinary, obtaining RNA from the B cells of the animals, reverse transcription, cloning in E. coli and isolation via the phage display technology. […] In a second run, by employing the cell culture system described by Heinzelmann and Bauer (Multiple protective functions of catalase against intercellular apoptosis-inducing ROS signaling of human tumor cells, Biol. Chem. 391, 675-693, 2010) it was checked which of the single domain VHH fragments binding to SOD actually results in an inhibition of SOD, what is expressed in the tumor system used as ROS-dependent apoptosis induction in the cells, since by the inhibition of SOD the concentration of free superoxide anions dramatically increases due to the absence of the enzymatic dismutation and results in a parallel indirect inhibition of catalase. In the following, this is expressed as ROS-dependent apoptosis induction. In a further control trial the specific inhibition of SOD by recombinant single domain VHH fragments was verified by the fact that the increasing effect of these fragments on apoptosis induction by exogenously added HOCl was examined, as described in Bauer 2013 (HOCl-dependent singlet oxygen and hydroxyl radical generation modulate and induce apoptosis of malignant cells. Anticancer Res 33: 3589-3602, 2013).

| Molecule | binding to human catalase (human catalase [1]) | neutralization (inhibition) of human catalase (human catalase [2]) | apoptosis induction in the presence of peroxynitrite scavenger FeTPPS ([3]; 25 μM FeTPPS) | apoptosis induction in the presence of NOX1 inhibitor AEBSF ([3]; 100 μM AEBSF) | apoptosis induction in the presence of singlet oxygen scavenger histidine ([3]; 2 mM histidine) | apoptosis induction in the presence of HOCl scavenger taurine ([3]; 50 mM taurine) | apoptosis induction in combination with 0.005 pg/ml of the complementary single domain VHH fragment ([3]; 3.5 hours, FIG. 18) | concentration at which both signal paths overlap ([3]; FIG. 14) | concentration from which no substantial inhibition by FeTPPS but very strong inhibition by taurine (HOCl path) ([3]; FIG. 14) | concentrations at which singlet oxygen seems to play a role ([3]; FIG. 14) | concentration range of the second increase of the apoptosis ([3]; FIG. 14, not inhibited by taurine) | optimum range of the apoptosis induction ([3]; FIGS. 14A and B, 3.5 hours) | optimum conc. ([3]; Table 1, concentration necessary for optimum apoptosis induction, taken from FIGS. 13A, 13B, 15A, 15B, 20) | optimum conc. ([3]; Table 2, FIG. 20 experiment, 3.5 hours) | apoptosis induction in MKN-45 cells ([3]; increasing concentrations, 3-4 hours at 37° C., 5% CO2) | ROS signaling path induced ([3]; inhibitor analysis) | neutralization (inhibition) of human SOD1 (human SOD1 [4]) | binding to human SOD1 (human SOD1 [5]) |
| --- | --- | --- | --- | --- | --- | --- | --- | --- | --- | --- | --- | --- | --- | --- | --- | --- | --- | --- |
| B1 | bind to human catalase | neutralize it | only in the left part of the optimum curve results in a strong inhibition and then, changes the optimum curve of apoptosis induction into a plateau curve | inhibited by the NOX1 inhibitor AEBSF in the entire range of concentrations | does not result in an inhibition of apoptosis, but changes the optimum curve into a plateau curve | does not inhibit in the left range of concentrations of the optimum curve, but then results in a strong inhibition of the apoptosis in the entire further range of the optimum curve | noteworthy synergistic effect | 0.37 pg/mL | ≥ 0.75 pg/mL | > 0.75 pg/mL | ≥ 6.2 pg/mL | 0 to 6.2 pg/mL | 0.4 pg/mL | 0.17 pg/mL | induces apoptosis in the form of an optimum curve and a subsequent second increase | via the NO/peroxynitrite and HOCl path |  |  |
| B2 |  |  |  |  |  |  |  |  |  |  |  |  |  |  |  |  | do not neutralize it | bind to human SOD1 |
